Measured values published in the RNAGym collection of RNA variant scans (doi:10.7554/elife.90254).

B1: LINE1-full (parent)
chain: UACGUAGGUGGUUUUCCCCUGAUAGUGCUAAGGGGGCCUGGAAGUUUGGACUGGGCAGAGCUCAACACAGCGUGGCAAAGUGGCUGUGGCUAGACUGCCUCUCUGGAUUCCUCGUCACUCAGCAGGGCAUCUCUGAGAGAAAUGCC

Variants of: B1
Assay: self-cleavage, relative activity (ratio to wild type); higher = more cleavage; in vitro, sequencing; the parent is a self-cleaving ribozyme

Row | Variant | self-cleavage
1 | UACGUAGGUGGUUUUCCCCUGAUAGUGCUAAGGGGACCUGGAAGUUUGGACUGGGCAGAGCUCAACACAGCGUGGCAAAGUGGCUGUGGCUAGACUGCCUCUCUGGAUUCCUUGUCACUCAGCAGGGCAUCUCUGAGAGAAAUGCC [G36A C113U] | 1.02
2 | UACGUAGGUGGUUUUCCCCUGAUAGUGCUAAGGGGACCUGGAAGUUUGGACUGGGCAGAGCUCAACACAGCGUGGCAAAGUGGCUGUGGCUAGACUGCCUCUCUGGAUUCCUCGUCAGUCAGCAGGGCAUCUCUGAGAGAAAUGCC [G36A C118G] | 1.04
3 | UACGUAGGUGGUUUUCCCCUGAUAGUGCUAAGGGGACCUUGAAGUUUGGACUGGGCAGAGCUCAACACAGCGUGGCAAAGUGGCUGUGGCUAGACUGCCUCUCUGGAUUCCUCGUCACUCAGCAGGGCAUCUCUGAGAGAAAUGCC [G36A G40U] | 0.66
4 | UACGUAGGUGGUUUUCCCCUGAUAGUGCUAAGGGGACCUGGAAGUUUGGACUGGGCAGAGCUCAACACAGCGUGGCAAAGUGGCUGUGUCUAGACUGCCUCUCUGGAUUCCUCGUCACUCAGCAGGGCAUCUCUGAGAGAAAUGCC [G36A G89U] | 0.01
5 | UACGUAGGUGGUUUUCCCCUGAUAGUGCUAAGGGGACCUGGAAGUUUGGACUGGGCAGAGCUCAACACAGCGUGGCAAAGUGGCUGUGGCUAGACUGCCUCUCUAGAUUCCUCGUCACUCAGCAGGGCAUCUCUGAGAGAAAUGCC [G36A G105A] | 1.46
6 | UACGUAGGUGGUUUUCCCCUGAUAGUGCUAAGGGGACCUGGAAGCUUGGACUGGGCAGAGCUCAACACAGCGUGGCAAAGUGGCUGUGGCUAGACUGCCUCUCUGGAUUCCUCGUCACUCAGCAGGGCAUCUCUGAGAGAAAUGCC [G36A U45C] | 1.81
7 | UACGUAGGUGGUUUUCCCCUGAUAGUGCUAAGGGGACCUGGAAGUCUGGACUGGGCAGAGCUCAACACAGCGUGGCAAAGUGGCUGUGGCUAGACUGCCUCUCUGGAUUCCUCGUCACUCAGCAGGGCAUCUCUGAGAGAAAUGCC [G36A U46C] | 1.32
8 | UACGUAGGUGGUUUUCCCCUGAUAGUGCUAAGGGGACCUGGAAGUUCGGACUGGGCAGAGCUCAACACAGCGUGGCAAAGUGGCUGUGGCUAGACUGCCUCUCUGGAUUCCUCGUCACUCAGCAGGGCAUCUCUGAGAGAAAUGCC [G36A U47C] | 0.9
9 | UACGUAGGUGGUUUUCCCCUGAUAGUGCUAAGGGGACCUGGAAGUUUGGACAGGGCAGAGCUCAACACAGCGUGGCAAAGUGGCUGUGGCUAGACUGCCUCUCUGGAUUCCUCGUCACUCAGCAGGGCAUCUCUGAGAGAAAUGCC [G36A U52A] | 1.21
10 | UACGUAGGUGGUUUUCCCCUGAUAGUGCUAAGGGGACCUGGAAGUUUGGACUGGGCAGAGCCCAACACAGCGUGGCAAAGUGGCUGUGGCUAGACUGCCUCUCUGGAUUCCUCGUCACUCAGCAGGGCAUCUCUGAGAGAAAUGCC [G36A U62C] | 0.05
11 | UACGUAGGUGGUUUUCCCCUGAUAGUGCUAAGGGGACCUGGAAGUUUGGACUGGGCAGAGCUCAACACAGCGUGGCAAAGUGGCUGUGGCUAGACUGCCUCUCUGGAUCCCUCGUCACUCAGCAGGGCAUCUCUGAGAGAAAUGCC [G36A U109C] | 0.75
12 | UACGUAGGUGGUUUUCCCCUGAUAGUGCUAAGGGGACCUGGAAGUUUGGACUGGGCAGAGCUCAACACAGCGUGGCAAAGUGGCUGUGGCUAGACUGCCUCUCUGGAUUCCCCGUCACUCAGCAGGGCAUCUCUGAGAGAAAUGCC [G36A U112C] | 1.29
13 | UACGUAGGUGGUUUUCCCCUGAUAGUGCUAAGGGGACCUGGAAGUUUGGACUGGGCAGAGCUCAACACAGCGUGGCAAAGUGGCUGUGGCUAGACUGCCUCUCUGGAUUCCUCGACACUCAGCAGGGCAUCUCUGAGAGAAAUGCC [G36A U115A] | 1.39
14 | UACGUAGGUGGUUUUCCCCUGAUAGUGCUAAGGGGACCUGGAAGUUUGGACUGGGCAGAGCUCAACACAGCGUGGCAAAGUGGCUGUGGCUAGACUGCCUCUCUGGAUUCCUCGCCACUCAGCAGGGCAUCUCUGAGAGAAAUGCC [G36A U115C] | 1.53
15 | UACGUAGGUGGUUUUCCCCUGAUAGUGCUAAGGGGACCUGGAAGUUUGGACUGGGCAGAGCUCAACACAGCGUGGCAAAGUGGCUGUGGCUAGACUGCCUCUCUGGAUUCCUCGUCACACAGCAGGGCAUCUCUGAGAGAAAUGCC [G36A U119A] | 1.36
16 | UACGUAGGUGGUUUUCCCCUGAUAGUGCUAAGGGGACCUGGAAGUUUGGACUGGGCAGAGCUCAACACAGCGUGGCAAAGUGGCUGUGGCUAGACUGCCUCUCUGGAUUCCUCGUCACCCAGCAGGGCAUCUCUGAGAGAAAUGCC [G36A U119C] | 2.42
17 | UACGUAGGUGGUUUUCCCCUGAUAGUGCUAAGGGGACCUGGAAGUUUGGACUGGGCAGAGCUCAACACAGCGUGGCAAAGUGGCUGUGGCUAGACUGCCUCUCUGGAUUCCUCGUCACUCAGCAGGGCACCUCUGAGAGAAAUGCC [G36A U130C] | 1.27
18 | UACGUAGGUGGUUUUCCCCUGAUAGUGCUAAGGGGACCUGGAAGUUUGGACUGGGCAGAGCUCAACACAGCGUGGCAAAGUGGCUGUGGCUAGACUGCCUCUCUGGAUUCCUCGUCACUCAGCAGGGCAUCUCUGAGAGAAACGCC [G36A U143C] | 1.57
19 | UACGUAGGUGGUUUUCCCCUGAUAGUGCUAAGGGGCCCUGGAAGUUUGGACUGGGCGGAGCUCAACACAGCGUGGCAAAGUGGCUGUGGCUAGACUGCCUCUCUGGAUUCCUCGUCACUCAGCAGGGCAUCUCUGAGAGAAAUGCC [G36C A57G] | 0.9
20 | UACGUAGGUGGUUUUCCCCUGAUAGUGCUAAGGGGCCCUGGAAGUUUGGACUGGGCUGAGCUCAACACAGCGUGGCAAAGUGGCUGUGGCUAGACUGCCUCUCUGGAUUCCUCGUCACUCAGCAGGGCAUCUCUGAGAGAAAUGCC [G36C A57U] | 0.07
